Data: patent US20240358847A1 (Merck Sharp & Dohme, published 2024)
Where a chain is given by its changes, count along the chain named. Names and notes keep the numbering of the source. Values belong to the binder of their own block, whether it stands above or below them.

How the values were obtained:
Human Trop2 [1] = target: T1, Human Trop2 (human, UniProt P09758 27-274, limits assumed); assay: SPR, TROP2 capture, pH 7.4, bivalent mode; KDapp
T1 construct: also called TROP2 protein; trophoblast cell-surface antigen 2
T1 sequence (looked up): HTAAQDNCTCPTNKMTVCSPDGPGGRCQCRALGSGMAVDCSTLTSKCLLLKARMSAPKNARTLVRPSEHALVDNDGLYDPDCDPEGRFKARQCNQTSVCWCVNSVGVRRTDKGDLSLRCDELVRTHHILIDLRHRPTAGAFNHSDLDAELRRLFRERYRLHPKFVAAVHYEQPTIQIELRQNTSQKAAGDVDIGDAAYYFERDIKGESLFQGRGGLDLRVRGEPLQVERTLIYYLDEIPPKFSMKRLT

[2] = target: T2, TROP2 on BxPC-3 and MDA-MB-231-KWL cells (human, UniProt P09758 27-323); assay: on-cell ELISA, BxPC-3 cells (TROP2 high); design: unit not given beside the values
T2 construct: whole, on cells
T2 sequence (looked up): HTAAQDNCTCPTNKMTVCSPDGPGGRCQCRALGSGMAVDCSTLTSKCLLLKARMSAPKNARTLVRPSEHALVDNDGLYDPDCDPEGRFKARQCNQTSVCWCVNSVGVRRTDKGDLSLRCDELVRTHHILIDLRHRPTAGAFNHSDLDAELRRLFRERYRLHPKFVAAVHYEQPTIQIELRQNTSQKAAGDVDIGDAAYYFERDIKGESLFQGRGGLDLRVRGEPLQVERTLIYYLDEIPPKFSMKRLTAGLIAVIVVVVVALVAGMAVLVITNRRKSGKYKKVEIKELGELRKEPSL
Description: (§1) Cells were plated in duplicate onto 96-well plates, and primary antibody was diluted in cell culture medium with a starting concentration of 30 μg/mL (200 nM) with a dilution factor of 1:5. […] Data was plotted and analyzed. EC50 ([…]) was measured along with area under the curve (AUC) for each cell line.

[3] = target: T2, TROP2 on BxPC-3 and MDA-MB-231-KWL cells; assay: on-cell ELISA, BxPC-3 vs MDA-MB-231-KWL cells
Description: as §1

[4] = target: T2, TROP2 on BxPC-3 and MDA-MB-231-KWL cells; assay: on-cell ELISA, MDA-MB-231-KWL cells (TROP2 low); design: unit not given beside the values
Description: as §1

Human Trop2 [5] = target: T1, Human Trop2; assay: SPR, TROP2 capture, pH 7.4, monovalent mode; KDapp
Human Trop2 [6] = target: T1, Human Trop2; assay: SPR, binding to target

Kd (Human Trop2 [1]): 6.9 nM
B1: αTROP2 (HC: Sac-S375C) (LC: Sac-Y53D) (antibody, human IgG1, kappa)
heavy: not shown
light: DIQLTQSPSSLSASVGDRVSITCKASQDVSIAVAWYQQKPGKAPKLLIYSASDRYTGVPDRFSGSGSGTDFTLTISSLQPEDFAVYYCQQHYITPLTFGAGTKVEIKRTVAAPSVFIFPPSDEQLKSGTASVVCLLNNFYPREAKVQWKVDNALQSGNSQESVTEQDSKDSTYSLSSTLTLSKADYEKHKVYACEVTHQGLSSPVTKSFNRGEC

AUC (BxPC-3) [2]: 288 | ΔAUC [3]: 193 | AUC (MDA-MB-231-KWL) [4]: 95.1
B2: αTROP2 (HC:Sac) (LC:Sac-Y53D) (antibody, human IgG1, kappa)
heavy: not shown
light: B1 light

Kd (Human Trop2 [5]): 1.1 nM
B3: αTROP2 Fab (Fab, V domains shown)
VH: QVQLQQSGSELKKPGASVKVSCKASGYTFTNYGMNWVKQAPGQGLKWMGWINTYTGEPTYTDDFKGRFAFSLDTSVSTAYLQISSLKADDTAVYFCARGGFGSSYWYFDVWGQGSLVTVSS
VL: DIQLTQSPSSLSASVGDRVSITCKASQDVSIAVAWYQQKPGKAPKLLIYSASYRYTGVPDRFSGSGSGTDFTLTISSLQPEDFAVYYCQQHYITPLTFGAGTKVEIK
notes: CH1 and kappa constant parts not specified

binding result (Human Trop2 [6]): binds
B4: αTROP2 (HC:BSM-YTE-S375C) (LC:BSM-Y53D) conjugated to MP-AA-PABC-MMAE (ADC 1) (antibody, human IgG1, kappa, V domains shown)
VH: B3 VH with Q5L, K38R, A69S, T78Q, D89E, F95Y, S115T
VL: DIQLTQSPSSLSASVGDRVTITCKASQDVSIAVAWYQQKPGKAPKLLIYSASDRYTGVPSRFSGSGSGTDFTLTISSLQPEDFATYYCQQHYITPLTFGPGTKVEIKR
modifications: Cys at position 375 (Eu numbering) conjugated to MP-AA-PABC-MMAE; DAR 1.9
notes: Antibody-drug conjugate; also called αTROP2 (HC:BSM-YTE-S375C-MMAE) (LC:BSM-Y53D)
